From paper PMC9408933, “Discovery of the Key Mutation Site Influencing the Thermostability of Thermomyces lanuginosus Lipase by Rosetta Design Programs” (International Journal of Molecular Sciences, 2022)

Substrate: CCCCCCCCCCCCCCCC(=O)Oc1ccc([N+](=O)[O-])cc1
Assay: p-nitrophenol release, Michaelis-Menten fit
Assay type: biochemical, Thermomyces lanuginosus
Settings: 37 °C, pH 9.0, 100 mM Tris-HCl, pNPP 0.08-10.00 mM, apparent Km
Source text: p-nitrophenol release, Michaelis-Menten fit on TLL (Thermomyces lanuginosus lipase)

B1: TLL (Thermomyces lanuginosus lipase) (Thermomyces lanuginosus) (protein)
chain: EVSQDLFNQFNLFAQYSAAAYCGKNNDAPAGTNITCTGNACPEVEKADATFLYSFEDSGVGDVTGFLALDNTNKLIVLSFRGSRSIENWIGNLNFDLKEINDICSGCRGHDGFTSSWRSVADTLRQKVEDAVREHPDYRVVFTGHSLGGALATVAGADLRGNGYDIDVFSYGAPRVGNRAFAEFLTVQTGGTLYRITHTNDIVPRLPPREFGYSHSSPEYWIKSGTLVPVTRNDIVKIEGIDATGGNNQPNIPDIPAHLWYFGLIGTCL
notes: N-terminal His-tag, secreted from Pichia pastoris GS115 (pPIC9K), Ni-NTA purified
  Km: 160 ± 30 µM
  Vmax: 297 µmol/min/mg
  kcat: 850 ± 11.8 s⁻¹
  kcat/Km: 5.31e+06 ± 74000 M⁻¹ s⁻¹
